Results taken from publication doi:10.1101/2021.03.09.434456 (bioRxiv, 2021).

B1: mouse Kirrel2 WT ectodomain (domain or fragment, UniProt Q7TSU7 20-507, looked up)
chain: SPHFLQQPEDMVVLLGEEARLPCALGAYRGLVQWTKDGLALGGERDLPGWSRYWISGNSASGQHDLHIKPVELEDEASYECQASQAGLRSRPAQLHVMVPPEAPQVLGGPSVSLVAGVPGNLTCRSRGDSRPAPELLWFRDGIRLDGSSFHQTTLKDKATGTVENTLFLTPSSHDDGATLICRARSQALPTGRDTAVTLSLQYPPMVTLSAEPQTVQEGEKVTFLCQATAQPPVTGYRWAKGGSPVLGARGPRLEVVADATFLTEPVSCEVSNAVGSANRSTALEVLYGPILQAKPKSVSVDVGKDASFSCVWRGNPLPRITWTRMGGSQVLSSGPTLRLPSVALEDAGDYVCRAEPRRTGLGGGKAQARLTVNAPPVVTALQPAPAFLRGPARLQCVVFASPAPDSVVWSWDEGFLEAGSLGRFLVEAFPAPEVEGGQGPGLISVLHISGTQESDFTTGFNCSARNRLGEGRVQIHLGRRDLLPTVR
B2: mouse Kirrel3 D1 (domain or fragment)
chain: VYSFSQQPQDQVVVSGQPVTLLCAIPEYDGFVLWIKDGLALGVGRDLSSYPQYLVVGNHLSGEHHLKILRAELQDDAVYECQAIQAAIRSRPARLTVLVP
B3: mouse Kirrel2 D1 (domain or fragment)
chain: PHFLQQPEDMVVLLGEEARLPCALGAYRGLVQWTKDGLALGGERDLPGWSRYWISGNSASGQHDLHIKPVELEDEASYECQASQAGLRSRPAQLHVMVP
B4: mouse Kirrel3 WT ectodomain (domain or fragment, UniProt Q8BR86 22-535, looked up)
chain: LQKRGCCLVLGYMAKDKFRRMNEGQVYSFSQQPQDQVVVSGQPVTLLCAIPEYDGFVLWIKDGLALGVGRDLSSYPQYLVVGNHLSGEHHLKILRAELQDDAVYECQAIQAAIRSRPARLTVLVPPDDPIILGGPVISLRAGDPLNLTCHADNAKPAASIIWLRKGEVINGATYSKTLLRDGKRESIVSTLFISPGDVENGQSIVCRATNKAIPGGKETSVTIDIQHPPLVNLSVEPQPVLEDNIVTFHCSAKANPAVTQYRWAKRGHIIKEASGELYRTTVDYTYFSEPVSCEVTNALGSTNLSRTVDVYFGPRMTSEPQSLLVDLGSDAVFSCAWIGNPSLTIVWMKRGSGVVLSNEKTLTLKSVRQEDAGKYVCRAVVPRVGAGEREVTLTVNGPPIISSTQTQHALHGEKGQIKCFIRSTPPPDRIAWSWKENVLESGTSGRYTVETVNTEEGVISTLTISNIVRADFQTIYNCTAWNSFGSDTEIIRLKEQGSEMKSGAGLEAESVPMA

What was measured:
[1] = target: the molecule itself; experiment: AUC
[2] = target: the molecule itself; experiment: AUC + SEC
[3] = target: the molecule itself; experiment: crystal structure

Row | Protein | Kd [1] [nM] | stoichiometry N [1] | koff [2] [s⁻¹] | binding result [3]
1 | B1 | 900 | 2 | > 0.001 | 
2 | B2 |  |  |  | binds
3 | B3 |  |  |  | binds
4 | B4 | 210 | 2 | > 0.001 | 
